First the molecules themselves.
B1: human neurotrophin-3 (NT-3) (ligand, UniProt P20783 139-257, looked up)
chain: YAEHKSHRGEYSVCDSESLWVTDKSSAIDIRGHQVTVLGEIKTGNSPVKQYFYETRCKEARPVKNGCRGIDDKHWNSQCKTSQTYVRALTSENNKLVGWRWIRIDTSCVCALSRKIGRT
notes: also called human NT-3
B8: REGN475 (antibody, human IgG4 S228P)
heavy: not shown
VL: DIQMTQSPSSLSASAGDRVTITCRASQAIRNDLGWYQQKPGKAPKRLIYAAFNLQSGVPSRFSGSGSGTEFTLTISSLQPEDLASYYCQQYNRYPWTFGQGTKVEIKR

The target in assay [1] is T1, humanized anti-human NGF monoclonal antibody E3 ("RN624") (tanezumab; CAS Registry No. 880266-57-9).
T1 construct: control antibody; also called Control (RN624); Control mAb (RN624)
The assay can be described thus: OCTET; % RN624 binding to biotin-NGF sensor, no competitor (reference). The method, then:
(§1) Changes in the thickness of the biological layer were measured after incubation. The binding was normalized as a percentage of binding relative to the binding of antibody in absence of competitor.

Assay [2] has as its target B8. The experiment in a line: OCTET; % REGN475 binding to biotin-NGF sensor, no competitor (reference). As to the method: as §1
Assay [3] addresses B1. The experiment in a line: BIACORE SPR.
Assay [4] addresses T2, human nerve growth factor (NGF) (human, UniProt P01138 122-241).
T2 construct: range 122-241; biotin-labeled in OCTET and ELISA assays; also called human NGF; biotin-NGF
The experiment in a line: BIACORE SPR; purified mAb. The method, then: Antibodies were captured on either a goat, anti-human or anti-mouse IgG polyclonal antibody surface created by direct amine coupling of the capture antibody to a BIACORE™ chip. […] Kinetic analysis was performed to obtain the equilibrium dissociation constant (KD) and dissociation rate constant, and the latter was used to calculate the antigen/antibody complex dissociation t_{1/2} (Table 1).

The target of assay [5] is T2, human nerve growth factor (NGF). The assay can be described thus: BIACORE SPR; purified mAb. The source holds these as a separate data set.
T2 sequence (P01138 122-241 limits assumed): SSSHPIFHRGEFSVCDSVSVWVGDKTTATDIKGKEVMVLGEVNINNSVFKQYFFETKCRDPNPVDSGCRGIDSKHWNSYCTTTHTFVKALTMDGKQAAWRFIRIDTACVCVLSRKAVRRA
Assay [6] has as its target mouse NGF (mNGF) (mouse, UniProt P01139 122-241, limits assumed). The assay can be described thus: BIACORE SPR; purified mAb.
In assay [7] the target is rat NGF (rNGF) (rat, UniProt P25427 122-241, limits assumed). The assay can be described thus: BIACORE SPR; purified mAb.
Chain of rat NGF (rNGF) (P25427 122-241 limits assumed): as the sequence (P01138 122-241 limits assumed) above, with S3T, I6V, R9M, M37T, D60A, D65E, M92T, G94D, V117A, A120G counted along it
For assay [8], the target named is T2, human nerve growth factor (NGF). The experiment in a line: BIACORE blocking; % free NGF bound to p75-hFc chip. An excerpt: (§2) To identify blocking antibodies, a receptor blocking assay was designed using a BIACORE™ 3000 instrument. Recombinant human TrkA-hFc and human p75-hFc proteins were amine-coupled to a CM5 chip to a density of about 5000-6000 RU.
Assay [9] shares this target. The experiment in a line: BIACORE blocking; % free NGF bound to TrkA-hFc chip.
Excerpt: as §2

For assay [10] the target is unchanged. The assay can be described thus: competition ELISA; 50 pM biotin-NGF, hp75-hFc plate. The method, then: (§3) Specifically, the microtiter plates were prepared by coating the plates with 0.5 μg/ml hTrkA-hFc or 1 μg/ml hp75-hFc solution in PBS buffer overnight at 4° C., followed by blocking the plates with 0.5% BSA prior to use.
For assay [11] the target is unchanged. The experiment in a line: competition ELISA; 50 pM biotin-NGF, hTrkA-hFc plate. As to the method:
as §3

Assay [12] deals with B1. The experiment in a line: BIACORE; 20 nM NT-3 + 500 nM agent, % NT-3 bound to p75-hFc chip. The method, then: (§4) Human TrkA-hFc (9300 RU), human TrkB-hFc (6000 RU), human TrkC-hFc (9100 RU) and human p75-hFc (7500 RU) were covalently coupled to BIACORE® CM5 chip surfaces by amine-coupling procedure. […] The binding mixture was first incubated at room temperature to reach equilibrium (about 1 hr) and then was injected over the above TrkA-hFc, TrkB-hFc, TrkC-hFc and p75-hFc surfaces.

The target of assay [13] is B1. The assay can be described thus: BIACORE; 20 nM NT-3 + 500 nM agent, % NT-3 bound to TrkA-hFc chip. As to the method: as §4
In assay [14] the target is B1. The experiment in a line: BIACORE; 20 nM NT-3 + 500 nM agent, % NT-3 bound to TrkB-hFc chip. The method, then: as §4
The target of assay [15] is B1. The assay can be described thus: BIACORE; 20 nM NT-3 + 500 nM agent, % NT-3 bound to TrkC-hFc chip. The method, then: as §4
The target in assay [16] is T2, human nerve growth factor (NGF). The assay can be described thus: cell-based or functional assay.
Assay [17] addresses B1. The experiment in a line: OCTET solution competition against biotin-NGF sensor. As to the method:
as §1

Like-named read-outs stand apart in the source and are kept apart here.

Chain of mouse NGF (mNGF) (P01139 122-241 limits assumed): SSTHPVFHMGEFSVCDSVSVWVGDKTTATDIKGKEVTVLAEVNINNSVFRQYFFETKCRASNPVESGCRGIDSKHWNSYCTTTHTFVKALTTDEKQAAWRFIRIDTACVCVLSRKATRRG
T2 sequence (P01138 122-241 limits assumed): as the sequence (P01138 122-241 limits assumed) above

Turning to B1, the “RN624 % Binding” value in assay [1] was 100%. Besides, the “REGN475 % Binding” value in assay [2] came to 100%.

B2: REGN476 (antibody, human IgG4 S228P, V domains shown)
VH: EVQLVESGGGLVQPGRSLRLSCAAPGFNFDDYAMHWVRQAPGKGLEWVSGISWNSGTIGYADSVKGRFTISRDNAKNSLYLQMNSLRAEDTALYYCAKEGVWFGKLFSSYGMDVWGQGTTVTVSS
VL: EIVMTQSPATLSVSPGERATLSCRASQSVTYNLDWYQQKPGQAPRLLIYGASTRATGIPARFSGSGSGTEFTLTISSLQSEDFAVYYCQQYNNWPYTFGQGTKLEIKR
Turning to B2, the binding result in [3] was “no binding (tested: 1.25 nM to 40 nM)”. Besides, the Kd came to 8.91 pM in assay [4], 8.91 pM in assay [5], 115 pM in assay [6] and 155 pM in assay [7]. Moreover, in assay [4], the t1/2 came out at 4 h. Besides, the “% Binding p75-hFc” value in [8] turned out to be 13%. Further, in assay [9], the “% Binding TrkA-hFc” value came out at 6%. For the same molecule, the IC50 in assay [10] was 61 pM; in [11], 65 pM.

B3: REGN477 (antibody, human IgG4 S228P)
heavy: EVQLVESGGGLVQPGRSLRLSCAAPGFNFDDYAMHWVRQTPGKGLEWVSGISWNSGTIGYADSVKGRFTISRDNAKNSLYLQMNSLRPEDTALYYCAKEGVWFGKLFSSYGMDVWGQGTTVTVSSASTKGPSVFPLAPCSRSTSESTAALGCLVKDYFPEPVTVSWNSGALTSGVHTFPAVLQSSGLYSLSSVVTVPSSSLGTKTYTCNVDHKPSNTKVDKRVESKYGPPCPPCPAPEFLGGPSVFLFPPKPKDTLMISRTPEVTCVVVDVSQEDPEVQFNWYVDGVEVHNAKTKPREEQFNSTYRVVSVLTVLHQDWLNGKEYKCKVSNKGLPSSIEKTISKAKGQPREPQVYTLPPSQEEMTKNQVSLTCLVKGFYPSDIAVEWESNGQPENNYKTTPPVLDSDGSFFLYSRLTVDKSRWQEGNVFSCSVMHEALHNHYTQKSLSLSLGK
VL: EIVMTQSPATLSVSPGERATLSCRASQSVTYNLDWYQQKPGQAPRLLIFGASTRATGIPARFSGSGSGTEFTLTITSLQSEDFAVYYCQQYNNWPYTFGQGTKLEIKR
On to B3, for which the binding result in assay [3] is given as “no binding (tested: 1.25 nM to 40 nM)”. For the same molecule, the Kd was found to be 7.98 pM in [4], 7.98 pM in assay [5], 133 pM in assay [6] and 164 pM in [7]. Also, the t1/2 in [4] is 4 h. In [8], the “% Binding p75-hFc” value amounted to 13%. Moreover, the “% Binding TrkA-hFc” value in assay [9] came to 9%. Besides, the IC50 in assay [10] stood at 62 pM; in [11] it was 65 pM.

B4: human brain derived neurotrophic factor (hBDNF) (ligand, UniProt P23560 129-247, looked up)
chain: HSDPARRGELSVCDSISEWVTAADKKTAVDMSGGTVTVLEKVPVSKGQLKQYFYETKCNPMGYTKEGCRGIDKRHWNSQCRTTQSYVRALTMDSKKRIGWRFIRIDTSCVCTLTIKRGR
As to B4, in assay [1], the “RN624 % Binding” value amounted to 100%. In addition, the “REGN475 % Binding” value in assay [2] worked out at 100%.

B5: recombinant human p75-hFc (Fc fusion, UniProt P08138 29-250, looked up)
chain: KEACPTGLYTHSGECCKACNLGEGVAQPCGANQTVCEPCLDSVTFSDVVSATEPCKPCTECVGLQSMSAPCVEADDAVCRCAYGYYQDETTGRCEACRVCEAGSGLVFSCQDKQNTVCEECPDGTYSDEANHVDPCLPCTVCEDTERQLRECTRWADAECEEIPGRWITRSTPPEGSDSTAPSTQEPEAPPEQDLIASTVAGVVTTVMGSSQPVVTRGTTDN
notes: extracellular domain; dimeric fusion protein; also called hp75-hFc; not shown: Fc portion of human IgG1
With B5, the “% binding” value in assay [12] was found to be 4%; in [13] it was 14%; in [14] it was 2%; in assay [15] it was 2%.

B6: REGN472 (antibody, human IgG1)
heavy: not shown
VL: DIQMTQSPSSLSASVGDRVTITCRASQAIRNDLGWYQQKPGKAPKRLIYAAFNLQSGVPSRFSGSGSGTEFTLTISSLQPEDFATYYCQQYNRYPWTFGQGTKVEIKR
Turning to B6, the binding result in [3] is “no binding (tested: 1.25 nM to 40 nM)”. For the same molecule, in assay [16], the “IC50 (pM), PC12 SRE-luciferase” value was found to be 4.5 pM. Further, the Kd was determined as 0.41 pM in assay [4], 0.41 pM in assay [5], 0.61 pM in [6] and 3.96 pM in assay [7]. This molecule showed a t1/2 in assay [4] of 30 h. Further, the “% Binding p75-hFc” value in assay [8] is 7%. The “% Binding TrkA-hFc” value in [9] worked out at 4%. Besides, the concentration for half-maximal inhibition (IC50) in assay [10] and in assay [11] was 12 pM in each case.

B7: REGN474 (antibody, human IgG4 S228P)
heavy: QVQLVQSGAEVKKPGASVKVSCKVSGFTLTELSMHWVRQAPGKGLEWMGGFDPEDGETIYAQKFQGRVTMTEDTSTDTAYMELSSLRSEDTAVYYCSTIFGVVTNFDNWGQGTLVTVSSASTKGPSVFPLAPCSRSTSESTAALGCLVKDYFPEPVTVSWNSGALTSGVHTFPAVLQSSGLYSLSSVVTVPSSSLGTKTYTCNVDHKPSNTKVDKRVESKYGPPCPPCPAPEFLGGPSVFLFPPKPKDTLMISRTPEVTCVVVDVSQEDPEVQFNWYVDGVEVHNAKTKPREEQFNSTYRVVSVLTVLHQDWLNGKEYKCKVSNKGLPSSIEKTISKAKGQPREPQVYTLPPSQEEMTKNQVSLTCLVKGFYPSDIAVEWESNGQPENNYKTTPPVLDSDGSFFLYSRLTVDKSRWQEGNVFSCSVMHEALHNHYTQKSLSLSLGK
VL: DIQMTQSPSSLSASVGDRVTITCRASQAIRNDLGWYQQKPGKAPKRLIYAAFNLQSGVPSRFSGSGSGTEFTLTISSLQPEDFATYYCQQYNRYPWTFGQGTKVEIKR
Regarding B7, in assay [3], the binding result is “no binding (tested: 1.25 nM to 40 nM)”. Also, in assay [16], the “IC50 (pM), PC12 SRE-luciferase” value came to 6.6 pM. In addition, the Kd turned out to be 0.41 pM in [4], 0.41 pM in assay [5], 0.43 pM in assay [6] and 3.42 pM in [7]. The t1/2 in assay [4] was 31 h. The “% Binding p75-hFc” value in [8] came out at 9%. Also, the “% Binding TrkA-hFc” value in assay [9] is 6%. Besides, the IC50 is 6.3 pM in assay [10] and 8.1 pM in [11].

With B8, the “IC50 (pM), PC12 SRE-luciferase” value in assay [16] came out at 9.6 pM. Besides, the Kd in [4] was found to be 0.18 pM; in assay [5], 0.18 pM; in [6], 0.36 pM; in [7], 0.93 pM. In addition, in assay [4], the t1/2 stood at 57 h. Further, the binding result in [17] is listed as “no binding (tested: 0 to 4 µM)”. Besides, the “% Binding p75-hFc” value in [8] is 10%. The “% Binding TrkA-hFc” value in assay [9] amounted to 6%. The IC50 is 22 pM in assay [10] and 20 pM in [11]. For the same molecule, the figures for the “% binding” value in [13], in assay [14] and in assay [15] were 90%, 99% and 101%, respectively.

B9: recombinant human TrkA-hFc (Fc fusion, UniProt P04629 33-423, looked up)
chain: AAPCPDACCPHGSSGLRCTRDGALDSLHHLPGAENLTELYIENQQHLQHLELRDLRGLGELRNLTIVKSGLRFVAPDAFHFTPRLSRLNLSFNALESLSWKTVQGLSLQELVLSGNPLHCSCALRWLQRWEEEGLGGVPEQKLQCHGQGPLAHMPNASCGVPTLKVQVPNASVDVGDDVLLRCQVEGRGLEQAGWILTELEQSATVMKSGGLPSLGLTLANVTSDLNRKNVTCWAENDVGRAEVSVQVNVSFPASVQLHTAVEMHHWCIPFSVDGQPAPSLRWLFNGSVLNETSFIFTEFLEPAANETVRHGCLRLNQPTHVNNGNYTLLAANPFGQASASIMAAFMDNPFEFNPEDPIPVSFSPVDTNSTSGDPVEKKDETPFGVSVAVG
notes: extracellular domain; dimeric fusion protein; also called hTrkA-hFc; not shown: Fc portion of human IgG1
With B9, the “% binding” value in assay [12] turned out to be 7%; in [13] it was 21%; in assay [14], 5%; in assay [15], 3%.

Source of the values: US20120164688A1 (Regeneron, published 2012).
